Measured values published in article PMC4821239, “Molecular architecture of the Dam1 complex–microtubule interaction” (Open Biology, 2016).

T1: Dam1 (budding yeast, UniProt P53267 1-343)
T1 construct: Dam1, subunit of the budding yeast Dam1 complex; Subunit inside the recombinant 10-subunit complex; also called Dam1 subunit; source: expressed and purified as part of the Dam1 complex as described [3]
T1 sequence (looked up): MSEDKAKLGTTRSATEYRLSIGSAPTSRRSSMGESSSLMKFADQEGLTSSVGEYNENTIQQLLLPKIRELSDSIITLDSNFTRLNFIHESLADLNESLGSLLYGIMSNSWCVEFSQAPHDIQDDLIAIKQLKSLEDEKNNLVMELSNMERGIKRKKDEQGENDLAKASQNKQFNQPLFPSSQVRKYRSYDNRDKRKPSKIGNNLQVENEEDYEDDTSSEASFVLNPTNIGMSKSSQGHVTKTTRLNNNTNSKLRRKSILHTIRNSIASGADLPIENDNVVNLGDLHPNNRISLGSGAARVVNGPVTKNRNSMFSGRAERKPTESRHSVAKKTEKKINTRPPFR

B1: Duo1Δ184 (domain or fragment, budding yeast, UniProt P53168 1-183, looked up)
chain: MSEQSQLDDSTIDKLIPQIFNEMRSNLNNTTNKFPKSTGGGASDNISANSNSIRSFNSITTQSLLKESESLDKITAMIKNVTAALKNNLPVYVNQVHEVCKSTNSILDSWINIHSQAGYIHKLMSDQTYLKLINDRLHNENVNTNDEDGSTLHNVIALKKKEILDLRQKLENRKGEKDAAPAK
notes: Duo1, budding yeast; stop codon inserted at position 184; Subunit inside the Dam1 complex Duo1Δ184; also called Duo1 lacking its C terminus (Δ184); source: purified as part of the Dam1 complex Duo1Δ184 (Ni–NTA, Superose 6 size-exclusion chromatography)
B2: Dam1 complex (complex, budding yeast)
chain 1: T1 sequence (looked up)
chain 2: MSEQSQLDDSTIDKLIPQIFNEMRSNLNNTTNKFPKSTGGGASDNISANSNSIRSFNSITTQSLLKESESLDKITAMIKNVTAALKNNLPVYVNQVHEVCKSTNSILDSWINIHSQAGYIHKLMSDQTYLKLINDRLHNENVNTNDEDGSTLHNVIALKKKEILDLRQKLENRKGEKDAAPAKPPNQGLNPRYGVQSGRRPVPSAGISNNGRVRKTHVPASKRPSGIPRVTNRWTKPTASSSRKMFR
chain 3: MMASTSNDEEKLISTTDKYFIEQRNIVLQEINETMNSILNGLNGLNISLESSIAVGREFQSVSDLWKTLYDGLESLSDEAPIDEQPTLSQSKTK
chain 4: MDSIDEQIAIKRKELQSLQKITSLTDGLKIQLTELNEQIKEMGMNADSVAQLMNNWDSIINNISQASLGLLQYAEGDYEIGPWKDSKKKESEQSNETGLEAQENDKNDEDNDEDEDLVPLPETMVRIRVDGNE
chain 5: MEHNLSPLQQEVLDKYKQLSLDLKALDETIKELNYSQHRQQHSQQETVSPDEILQEMRDIEVKIGLVGTLLKGSVYSLILQRKQEQESLGSNSK
chain 6: MENPHEQVQANILSRIIGNVKRLNESVAILNQELVTINNRNKNLEIMGAICDNYHSSVQFNLEATNNKKPPL
chain 7: MNANKQRQYNQLAHELRELQTNLQETTKQLDIMSKQCNENLVGQLGKVHGSWLIGSYIYYMEQMLGKTQ
chain 8: MDSASKEETLEKLDQEITVNLQKIDSNLSFCFHKITQDIIPHVATYSEICERIMDSTEWLGTMFQETGLVNLQANAAAPVGNAPVKSLVSNNVGIFPTSAEEASRQSQTDNGPNEADSAVHVNRDVHSMFNNDSIDDFHTANITSTGQILKLPDSSDEDTGSEAVPSREQTDLTGEGHGGADDEQDESTIQRQSRKRKISLLLQQQYGSSSSMVPSPIVPNKMRKQLAHEEHINNDGDNDDENSNNIESSPLKQGHHHPKGQADDNNEGPDEEESTKEVPKPGTIIHFSTNR
chain 9: MTDALEQSVLALEGTVSVLKDSVESLKCANEPSTNLASTMLQTKRVFRLVPEYDVERSKLDLIEEVEPLVRTLGDKLRKSMGRMQRELDTLQQTYELNDLRLKKNISMDDDDALNSPDMGQEYEGRDADDVVMMASSTNEELEELKKLKEKKKQLENKLEILKQK
chain 10: MGESLDRCIDDINRAVDSMSTLYFKPPGIFHNAILQGASNKASIRKDITRLIKDCNHDEAYLLFKVNPEKQSVSRRDGKEGVFDYVIKRDTDMKRNRRLGRPGEKPIIHVPKEVYLNKDRLDLNNKRRRTATTSGGGLNGFIFDTDLIGSSVISNSSSGTFKALSAVFKDDPQIQRLLYALENGSVLMEEESNNQRRKTIFVEDFPTDLILKVMAEVTDLWPLTEFKQDYDQLYHNYEQLSSKLRFIKKEVLLQDDRLKTMSQYHPSSSHDVAKIIRKEKDEIRRLEMEIANLQE
notes: Dam1, budding yeast; Duo1, budding yeast; Dad1, budding yeast; Dad2, budding yeast; Dad3, budding yeast; Dad4, budding yeast; Hsk3, budding yeast; Ask1, budding yeast; Spc19, budding yeast; Spc34, budding yeast; 10-subunit complex; also called heterodecameric Dam1 complex; wild-type Dam1 complex; source: expressed and purified as described [3]; copies: + + + + + + + + +
B3: Dad2 (natural protein, budding yeast, UniProt P36162 1-133, looked up)
chain: B2 chain 4
notes: Dad2, subunit of the budding yeast Dam1 complex; Subunit inside the recombinant 10-subunit complex; source: expressed and purified as part of the Dam1 complex as described [3]
B4: Spc34 (natural protein, budding yeast, UniProt P36131 1-295, looked up)
chain: B2 chain 10
notes: Spc34, subunit of the budding yeast Dam1 complex; Subunit inside the recombinant 10-subunit complex; source: expressed and purified as part of the Dam1 complex as described [3]
B5: Ask1 (natural protein, budding yeast, UniProt P35734 1-292, looked up)
chain: B2 chain 8
notes: Ask1, subunit of the budding yeast Dam1 complex; Subunit inside the recombinant 10-subunit complex; source: expressed and purified as part of the Dam1 complex as described [3]
B6: Duo1 (natural protein, budding yeast, UniProt P53168 1-247, looked up)
chain: B2 chain 2
notes: Duo1, subunit of the budding yeast Dam1 complex; Subunit inside the recombinant 10-subunit complex; also called Duo1 subunit; source: expressed and purified as part of the Dam1 complex as described [3]
B7: Spc19 (natural protein, budding yeast, UniProt Q03954 1-165, looked up)
chain: B2 chain 9
notes: Spc19, subunit of the budding yeast Dam1 complex; Subunit inside the recombinant 10-subunit complex; also called Sp19; source: expressed and purified as part of the Dam1 complex as described [3]

Assays:
Dam1 [1] = molecular target: T1, Dam1; experiment: cross-linking; BS3, size-exclusion fraction of the Dam1 complex Duo1Δ184 eluting as the full complex, mass spectrometry; conditions: both partners purified
[2] = molecular target: the molecule itself; experiment: cross-linking; BS3, Dam1 complex at 0.05 mg/ml in solution; cross-linked species (approx. 110, 220 and 440 kDa) separated by SDS-PAGE, bands cut out, in-gel trypsin digestion, mass spectrometry
Ask1 [3] = molecular target: B5; experiment: cross-linking; EDC with Sulfo-NHS, Dam1 complex assembled on taxol-stabilized microtubules in BRB80, pellet washed, room temperature 1 h, digested in solution, mass spectrometry; conditions: both partners purified
Dam1 [4] = molecular target: T1, Dam1; experiment: cross-linking; BS3, Dam1 complex at 0.3 mg/ml in BRB80, room temperature 40-60 min, digested in solution, mass spectrometry; some links may be between oligomerizing complexes; conditions: both partners purified
Spc19 = molecular target: B7; experiment: cross-linking; BS3, Dam1 complex at 0.05 mg/ml in solution; cross-linked species (approx. 110, 220 and 440 kDa) separated by SDS-PAGE, bands cut out, in-gel trypsin digestion, mass spectrometry; conditions: both partners purified
Spc34 [5] = molecular target: B4; experiment: cross-linking; BS3, Dam1 complex at 0.3 mg/ml in BRB80, room temperature 40-60 min, digested in solution, mass spectrometry; some links may be between oligomerizing complexes; conditions: both partners purified
Ask1 [6] = molecular target: B5; experiment: as above; conditions: both partners purified
Duo1 = molecular target: B6; experiment: as above; conditions: both partners purified
Spc34 [7] = molecular target: B4; experiment: cross-linking; BS3, Dam1 complex at 0.05 mg/ml in solution; cross-linked species (approx. 110, 220 and 440 kDa) separated by SDS-PAGE, bands cut out, in-gel trypsin digestion, mass spectrometry; conditions: both partners purified

Binder: B1
binding result (Dam1 [1]): binds

Binder: B2
stoichiometry N [2]: 2

Binder: B3
binding result (Ask1 [3]): binds
binding result (Dam1 [4]): binds
binding result (Spc19): binds

Binder: B4
binding result (Dam1 [4]): binds

Binder: B5
binding result (Dam1 [4]): binds
binding result (Spc34 [5]): binds

Binder: B6
binding result (Dam1 [4]): binds
binding result (Spc34 [5]): binds
binding result (Ask1 [6]): binds

Binder: B7
binding result (Dam1 [4]): binds
binding result (Duo1): binds
binding result (Ask1 [6]): binds
binding result (Spc34 [7]): binds
